The subject of the series is Escherichia coli TOP10. Description: shrunken log2 fold change of peptide-encoding DNA abundance (4.5 h post-induction vs induction); higher = less antimicrobial activity (less host growth inhibition). The settings on record: time post-induction: 4.5 h; library: site-saturation at positions 5, 18, 19, 20.
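Note: peptides expressed intracellularly from a pBAD plasmid library in pooled LB shake-flask culture, induced with 0.3% L-arabinose, DNA abundance read by NGS, three biological replicates, DESeq2 with apeglm shrinkage.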

Take RRIRCRPPRLPRPRPRPWSTPRP: the “shrunken log2 fold change” value was -0.148.

On to RRIRMRPPRLPRPRPRPHKDPRP, for which the “shrunken log2 fold change” value is -0.0811.

Take RRIRARPPRLPRPRPRPQSIPRP: the “shrunken log2 fold change” value is -0.0868.

Turning to RRIRIRPPRLPRPRPRPRMNPRP, the “shrunken log2 fold change” value is -0.593.

On to RRIRPRPPRLPRPRPRPCTHPRP, for which the “shrunken log2 fold change” value was -0.0646.

For the sequence RRIRWRPPRLPRPRPRPEAHPRP, the “shrunken log2 fold change” value was determined as 0.219.

For RRIRFRPPRLPRPRPRPKMPPRP, the “shrunken log2 fold change” value is -0.0572.

RRIRCRPPRLPRPRPRPGKKPRP: the “shrunken log2 fold change” value was -0.0838.

As to RRIRMRPPRLPRPRPRPGNHPRP, the “shrunken log2 fold change” value was -0.0526.

For RRIRYRPPRLPRPRPRPSCNPRP, the “shrunken log2 fold change” value was -1.43.

For the sequence RRIRKRPPRLPRPRPRPVRPPRP, the “shrunken log2 fold change” value came to 1.28.

For RRIRDRPPRLPRPRPRPLVHPRP, the “shrunken log2 fold change” value came to 0.265.

Take RRIRMRPPRLPRPRPRPANNPRP: the “shrunken log2 fold change” value was -0.264.

Regarding RRIRIRPPRLPRPRPRPFFAPRP, the “shrunken log2 fold change” value was 0.073.

On to RRIRSRPPRLPRPRPRPLDMPRP, for which the “shrunken log2 fold change” value was found to be 0.0557.

For the sequence RRIRNRPPRLPRPRPRPAYLPRP, the “shrunken log2 fold change” value was -0.284.

In the case of RRIRSRPPRLPRPRPRPKPEPRP, the “shrunken log2 fold change” value was -0.01.

With RRIRIRPPRLPRPRPRPSHTPRP, the “shrunken log2 fold change” value is -0.595.

Turning to RRIRYRPPRLPRPRPRPKFYPRP, the “shrunken log2 fold change” value was 0.0354.

Consider RRIRTRPPRLPRPRPRPIFLPRP, for which the “shrunken log2 fold change” value is -0.145.

RRIRTRPPRLPRPRPRPLLWPRP: the “shrunken log2 fold change” value is 0.223.

In the case of RRIRERPPRLPRPRPRPIMWPRP, the “shrunken log2 fold change” value was -0.268.

For RRIRIRPPRLPRPRPRPESAPRP, the “shrunken log2 fold change” value was determined as 0.0116.

For the sequence RRIRTRPPRLPRPRPRPAHMPRP, the “shrunken log2 fold change” value is -0.0928.

In the case of RRIRARPPRLPRPRPRPHANPRP, the “shrunken log2 fold change” value is -0.0153.

As for RRIRQRPPRLPRPRPRPFVGPRP, the “shrunken log2 fold change” value is -0.237.

On to RRIRSRPPRLPRPRPRPMIPPRP, for which the “shrunken log2 fold change” value is -0.109.

As to RRIRMRPPRLPRPRPRPRDWPRP, the “shrunken log2 fold change” value turned out to be 1.31.

In the case of RRIRRRPPRLPRPRPRPDCYPRP, the “shrunken log2 fold change” value is -0.236.

Turning to RRIRNRPPRLPRPRPRPQWRPRP, the “shrunken log2 fold change” value was determined as 0.179.

Take RRIRFRPPRLPRPRPRPCWLPRP: the “shrunken log2 fold change” value was -0.165.

Consider RRIRARPPRLPRPRPRPDRAPRP, for which the “shrunken log2 fold change” value turned out to be 0.642.

Consider RRIRIRPPRLPRPRPRPQWFPRP, for which the “shrunken log2 fold change” value is -0.0117.

In the case of RRIRRRPPRLPRPRPRPTKQPRP, the “shrunken log2 fold change” value is -0.0752.

Consider RRIRGRPPRLPRPRPRPQPQPRP, for which the “shrunken log2 fold change” value was 0.706.

Take RRIRGRPPRLPRPRPRPMNIPRP: the “shrunken log2 fold change” value worked out at 0.127.

As for RRIRPRPPRLPRPRPRPQRWPRP, the “shrunken log2 fold change” value came out at 0.156.

RRIRGRPPRLPRPRPRPDRCPRP: the “shrunken log2 fold change” value came to 0.286.

For the sequence RRIRVRPPRLPRPRPRPKLAPRP, the “shrunken log2 fold change” value is 0.274.

Take RRIRKRPPRLPRPRPRPEVSPRP: the “shrunken log2 fold change” value came to 0.219.

As to RRIRGRPPRLPRPRPRPCGRPRP, the “shrunken log2 fold change” value was 0.799.

On to RRIRSRPPRLPRPRPRPWRLPRP, for which the “shrunken log2 fold change” value amounted to 0.0899.

On to RRIRARPPRLPRPRPRPCNFPRP, for which the “shrunken log2 fold change” value was -0.478.

On to RRIRQRPPRLPRPRPRPKYIPRP, for which the “shrunken log2 fold change” value is -1.11.

RRIRQRPPRLPRPRPRPHHSPRP: the “shrunken log2 fold change” value is -0.107.

Turning to RRIRVRPPRLPRPRPRPYMHPRP, the “shrunken log2 fold change” value is -0.3.

Take RRIRRRPPRLPRPRPRPDRLPRP: the “shrunken log2 fold change” value came out at 0.058.

Take RRIRHRPPRLPRPRPRPHRRPRP: the “shrunken log2 fold change” value came out at 0.0762.

Consider RRIRCRPPRLPRPRPRPQTDPRP, for which the “shrunken log2 fold change” value is -0.00613.

Regarding RRIRQRPPRLPRPRPRPYPMPRP, the “shrunken log2 fold change” value amounted to 0.0253.

(Values after the supplement of paper PMC9112550, “Optimization of the antimicrobial peptide Bac7 by deep mutational scanning” (BMC Biology, 2022).)
